From PMC9083827 come the findings set out here.

The target of this assay is TraB_(31-110) (plasmid pIP501 (originally isolated from Streptococcus agalactiae, mainly found in Enterococci)). The assay is described as follows: cross-linking; 10 µg TraB_(31-110) in 50 µl with 0/0.001/0.01/0.05/0.1% glutaraldehyde in 50 mM Bicine, 150 mM NaCl, 1 mM DTT, 20 min at room temperature; Tween-20 micelles; SDS-PAGE.

Values joined by “and” are separate entries in the source; they are usually repeats but may differ in a detail not shown here. Equal values may be shown once.

As to TraB_(31-110) (domain or fragment), the stoichiometry N (as a rule, a count of units in the complex or per binding partner) was 2 and 4.
